# Patent US20040059519A1
# Assays:
# [1] = molecular target: Human chorionic gonadotropin (human) (UniProt P01215); assay: bead sandwich, flow cytometry; capture B2 beads, hCG 20.0 ug/mL
# [2] = molecular target: Alpha fetoprotein (UniProt P02771); assay: MAB602 capture beads, flow cytometry; AFP 0.0 ng/mL, anti-AFP probe
# [3] = molecular target: Alpha fetoprotein (UniProt P02771); assay: MAB602 capture beads, flow cytometry; AFP 0.1 ng/mL, anti-AFP probe
# [4] = molecular target: Alpha fetoprotein (UniProt P02771); assay: MAB602 capture beads, flow cytometry; AFP 1.0 ng/mL, anti-AFP probe
# [5] = molecular target: Human chorionic gonadotropin (human) (UniProt P01215); assay: bead sandwich, flow cytometry; capture B2 beads, no hCG (background)
# [6] = molecular target: Alpha fetoprotein (UniProt P02771); assay: MAB602 capture beads, flow cytometry; AFP 10.0 ng/mL, anti-AFP probe
# [7] = molecular target: Alpha fetoprotein (UniProt P02771); assay: MAB602 capture beads, flow cytometry; AFP 100.0 ng/mL, anti-AFP probe
# [8] = molecular target: Alpha fetoprotein (UniProt P02771); assay: MAB602 capture beads, flow cytometry; AFP 1000.0 ng/mL, anti-AFP probe
# [9] = molecular target: Human chorionic gonadotropin (human) (UniProt P01215); assay: bead sandwich, flow cytometry; capture B1 (AB633) beads, hCG 20.0 ug/mL
# [10] = molecular target: Human chorionic gonadotropin (human) (UniProt P01215); assay: bead sandwich, flow cytometry; capture B1 (AB633) beads, no hCG (background)
# UniProt P02771, sequence (P02771 19-609 limits assumed): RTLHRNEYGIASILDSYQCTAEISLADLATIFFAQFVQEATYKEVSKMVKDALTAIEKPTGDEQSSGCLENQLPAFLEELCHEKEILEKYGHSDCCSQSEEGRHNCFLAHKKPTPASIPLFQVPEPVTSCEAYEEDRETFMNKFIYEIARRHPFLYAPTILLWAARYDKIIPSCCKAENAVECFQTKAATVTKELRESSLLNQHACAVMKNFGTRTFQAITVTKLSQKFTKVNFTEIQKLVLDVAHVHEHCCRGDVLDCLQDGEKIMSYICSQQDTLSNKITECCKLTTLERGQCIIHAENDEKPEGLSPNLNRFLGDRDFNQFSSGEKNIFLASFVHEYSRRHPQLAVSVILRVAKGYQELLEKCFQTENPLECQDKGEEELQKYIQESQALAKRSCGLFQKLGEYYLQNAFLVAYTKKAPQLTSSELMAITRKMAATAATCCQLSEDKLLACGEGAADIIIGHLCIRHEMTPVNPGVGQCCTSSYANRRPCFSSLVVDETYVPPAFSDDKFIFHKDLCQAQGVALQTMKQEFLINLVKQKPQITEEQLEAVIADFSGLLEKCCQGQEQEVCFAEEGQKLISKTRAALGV
# UniProt P01215, sequence (P01215 25-116, chain 1 of 2, other chains not shown): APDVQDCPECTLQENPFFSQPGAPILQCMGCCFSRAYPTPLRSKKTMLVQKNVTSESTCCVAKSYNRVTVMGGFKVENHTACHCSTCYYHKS
substance,measurement,setting,value
MAB602 monoclonal anti-hCG antibody,MIF of Fm,[1],886
same,MIF of Fm,[2],48
same,MIF of Fm,[3],48
same,MIF of Fm,[4],48
same,MIF of Fm,[5],56
same,MIF of Fm,[6],48
same,MIF of Fm,[7],48
same,MIF of Fm,[8],52
same,MIF of Fm,[9],107
same,MIF of Fm,[10],33
